From article PMC11505474, “Functional Characterization of the Ciliate Stylonychia lemnae Serotonin N-Acetyltransferase, a Pivotal Enzyme in Melatonin Biosynthesis and Its Overexpression Leads to Peroxidizing Herbicide Tolerance in Rice” (Antioxidants, 2024)

How the values were obtained:
[1] = system: COc1ccc2[nH]cc(CCN)c2c1; assay: purified protein; settings: acetyl-CoA 0.5 mM co-substrate, 100 mM potassium phosphate, pH 8.8 (or varying pH), 55 °C (general assay)
[2] = system: NCCc1c[nH]c2ccc(O)cc12; assay: purified protein; settings: acetyl-CoA 0.5 mM co-substrate, 100 mM potassium phosphate, pH 8.8 (or varying pH), 55 °C (general assay)

Q: “SlSNAT (Stylonychia lemnae serotonin N-acetyltransferase) (Stylonychia lemnae)” was tested. Which Km [1] did it give?
A: The Km was 246 µM.

Q: What about the Km [2] of the same substance?
A: Its Km is 776 µM.
